Assay [1] addresses melanocortin 3 receptor (MC3-R) (mouse) (UniProt P33033). The assay can be described thus: cell-based or functional assay.
Assay [2] deals with µ opioid receptor (MOP-R) (mouse) (UniProt P42866). Put plainly: cell-based or functional assay.
Chain of µ opioid receptor (MOP-R) (mouse) (P42866 whole entry): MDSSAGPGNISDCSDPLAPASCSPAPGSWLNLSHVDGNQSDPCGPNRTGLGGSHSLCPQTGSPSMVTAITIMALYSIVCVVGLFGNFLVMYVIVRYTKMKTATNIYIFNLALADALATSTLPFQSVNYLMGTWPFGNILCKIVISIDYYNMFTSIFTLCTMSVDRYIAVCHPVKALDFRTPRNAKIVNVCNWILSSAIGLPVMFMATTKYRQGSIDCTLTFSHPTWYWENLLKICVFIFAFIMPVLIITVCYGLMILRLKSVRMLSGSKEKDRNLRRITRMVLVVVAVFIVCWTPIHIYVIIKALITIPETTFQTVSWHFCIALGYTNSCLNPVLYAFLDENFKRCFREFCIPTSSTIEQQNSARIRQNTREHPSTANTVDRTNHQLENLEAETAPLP

Chain of melanocortin 3 receptor (MC3-R) (mouse) (P33033 whole entry): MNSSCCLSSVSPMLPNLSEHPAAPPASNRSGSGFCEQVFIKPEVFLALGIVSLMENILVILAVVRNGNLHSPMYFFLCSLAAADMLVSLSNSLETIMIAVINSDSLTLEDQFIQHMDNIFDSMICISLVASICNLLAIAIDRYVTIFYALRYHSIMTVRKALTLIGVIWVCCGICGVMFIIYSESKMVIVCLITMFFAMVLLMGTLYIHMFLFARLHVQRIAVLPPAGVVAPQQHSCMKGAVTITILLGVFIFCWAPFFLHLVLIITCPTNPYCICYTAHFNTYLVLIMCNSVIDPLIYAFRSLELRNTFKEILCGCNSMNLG

In assay [1], D-Trp^8-γMSH (peptide) gave a hyperpolarization of POMC neurons (7 nM, 9 of 15 neurons) of -5.5 mV and an increase of the frequency of GABAergic IPSCs recorded from POMC neurons (7 nM, 3 of 4 neurons) of 280%. On to “met-enkephalin (from UniProt P01210 100-104) (peptide)”, for which the hyperpolarization of the membrane potential of POMC cells (Met-Enk 30 µM, whole cell recording, n=10) in assay [2] fell in the range of 10 to 20 mV.

These data come from patent publication US20050015820A1.
